Residue numbers refer to the chain shown, from its start.
B1: IL33-0217 (antibody, human IgG1, kappa, V domains shown)
VH: EVQLVESGGGLVQPGGSLRLSCAASGFTFSSYWMYWVRQAPGKGLEWVAAITPNAGEDYYPESVKGRFTISRDNAKNSLYLQMNSLRAEDTAVYYCARGHYYYTSYSLGYWGQGTLVTVSS
VL: DIQMTQSPSSLSASVGDRVTITCRASQNINKHLDWYQQKPGKAPKLLIYFTNNLQTGVPSRFSGSGSGTDFTLTISSLQPEDFATYYCFQYNQGWTFGGGTKVEIKR
B2: IL33-0219 (antibody, human IgG1, kappa, V domains shown)
VH: B1 VH
VL: B1 VL with N30Q
B3: IL33-0220 (antibody, human IgG1, kappa, V domains shown)
VH: B1 VH
VL: B1 VL with N30Y
B4: IL33-0224 (antibody, human IgG1, V domains shown)
VH: B1 VH
VL: DIQMTQSPSSLSASVGDRVTITCRASQPISKHLDWYQQKPGKAPKLLIYFTNNLQTGVPSRFSGSGSGTDFTLTISSLQPEDFATYYCFQYNQGWTFGGGTKVEIK
B5: TSLP-0820 (antibody, human IgG1, lambda, V domains shown)
VH: EMQLVESGGGLVQPGGSLRLSCAASGFTFRTYGMHWVRQAPGKGLEWVAVIWYDGSNKHYADSVKGRFTISRDNAKNSLYLQMNSLRAEDTAVYYCARAPQWYLVHEAFDIWGQGTMVTVSS
VL: SYVLTQPPSVSVAPGQTARITCGGNNLGSKSVHWYQQKPGQAPVLVVYDDSDRPSWIPERFSGSNSGNTATLTISRGEAGDEADYYCQVWDSSSDHVVFGGGTKLTVLG
B6: TSLP-2000 (antibody, human IgG1, lambda, V domains shown)
VH: B5 VH
VL: B5 VL with D95K
B7: TSLP-2004 (antibody, human IgG1, lambda, V domains shown)
VH: B5 VH
VL: B5 VL with S92K
B8: TSLP-2002 (antibody, human IgG1, lambda, V domains shown)
VH: B5 VH
VL: B5 VL with S51K, S93K
B9: IL13433-1279 (other)
VH 1: EVQLVESGGGLVQPGGSLRLSCAASGFTFSSYAMSWVRQAPGKGLEWVASISSGDTTYYPDSVKGRFTISRDNAKNSLYLQMNSLRAEDTAVYYCARNEGYYFGLTLWGQGTLVTVSS
VL 1: DIQMTQSPSSLSASVGDRVTITCKASESVDHFGWSLVHWYQQKPGKAPKLLIYRASNLESGVPSRFSGSGSGTDFTLTISSLQPEDFATYYCQQSNEDPWTFGGGTKVEIK
VH 2: EVTLRESGPALVKPTQTLTLTCTFSGFSLSNFGEGLSWIRQPPGKGLEWLAHIYWDDDKRYNPSLKSRLTISKDTSRNQVVLTMTNMDPVDTATYYCARRETVFYWYFDVWGQGTTVTVSS
VL 2: DIQMTQSPSSLSASVGDRVTITCRASQSVDEEGDSYMNWYQQKPGKAPKLLIYAASNLESGVPSRFSGSGSGTDFTLTISSLQPEDFATYYCQQSNKDPPTFGGGTKVEIK
VH 3: B1 VH with H100Q, S105K
VL 3: B4 VL with S30H, K31N, T51G, N52K, T56E, N92K, Q93K, T96S
B10: IL13433-1042 (other)
heavy: EVQLVESGGGLVQPGGSLRLSCAASGFTFSSYWMYWVRQAPGKGLEWVAAITPNAGEDYYPESVKGRFTISRDNAKNSLYLQMNSLRAEDTAVYYCARGQYYYTKYSLGYWGQGTLVTVSSASTKGPSVFPLAPSSKSTSGGTAALGCLVKDYFPEPVTVSWNSGALTSGVHTFPAVLQSSGLYSLSSVVTVPSSSLGTQTYICNVNHKPSNTKVDKKVEPKSCRKTHTCPRCPAPEAAGAPSVFLFPPKPKDTLMISRTPEVTCVVVDVSHEDPEVKFNWYVDGVEVHNAKTKPREEQYNSTYRVVSVLTVLHQDWLNGKEYKCKVSNKALPAPIEKTISKAKGQPREPQVYTLPPSREEMTKNQVSLTCLVKGFYPSDIAVEWESNGQPENNYKTTPPVLDSDGSFFLYSRLTVDKSRWQQGNVFSCSVLHEALHSHYTQKSLSLSPGK
chain 1: DIQMTQSPSSLSASVGDRVTITCKASESVDHFGWSLVHWYQQKPGKAPKLLIYRASNLESGVPSRFSGSGSGTDFTLTISSLQPEDFATYYCQQSNEDPWTFGGGTKVEIKRTVAAPSVFIFPPSDEQLKSGTASVVCLLNNFYPREAKVQWKVDNALQSGNSQESVTEQDSKDSTYSLSSTLTLSKADYEKHKVYACEVTHQGLSSPVTKSFNRGECGGGGSEVTLRESGPALVKPTQTLTLTCTFSGFSLSNFGEGLSWIRQPPGKGLEWLAHIYWDDDKRYNPSLKSRLTISKDTSRNQVVLTMTNMDPVDTATYYCARRETVFYWYFDVWGQGTTVTVSSASTKGPSVFPLAPSSKSTSGGTAALGCLVKDYFPEPVTVSWNSGALTSGVHTFPAVLQSSGLYSLSSVVTVPSSSLGTQTYICNVNHKPSNTKVDKKVEPKSCEKTHTCPECPAPEAAGAPSVFLFPPKPKDTLMISRTPEVTCVVVDVSHEDPEVKFNWYVDGVEVHNAKTKPREEQYNSTYRVVSVLTVLHQDWLNGKEYKCKVSNKALPAPIEKTISKAKGQPREPQVYTLPPSREEMTKNQVSLTCEVKGFYPSDIAVEWESNGQPENNYKTTPPVLDSDGSFFLYSKLTVDKSRWQQGNVFSCSVLHEALHSHYTQKSLSLSPGK
light 1: DIQMTQSPSSLSASVGDRVTITCRASQPIHNHLDWYQQKPGKAPKLLIYFGKNLQEGVPSRFSGSGSGTDFTLTISSLQPEDFATYYCFQYKKGWSFGGGTKVEIKRTVAAPSVFIFPPSDEQLKSGTASVVCLLNNFYPREAKVQWKVDNALQSGNSQESVTEQDSKDSTYSLSSTLTLSKADYEKHKVYACEVTHQGLSSPVTKSFNRGEC
light 2: DIQMTQSPSSLSASVGDRVTITCRASQSVDEEGDSYMNWYQQKPGKAPKLLIYAASNLESGVPSRFSGSGSGTDFTLTISSLQPEDFATYYCQQSNEDPPTFGGGTKVEIKRTVAAPSVFIFPPSDEQLKSGTASVVCLLNNFYPREAKVQWKVDNALQSGNSQESVTEQDSKDSTYSLSSTLTLSKADYEKHKVYACEVTHQGLSSPVTKSFNRGEC
chain 2: EVQLVESGGGLVQPGGSLRLSCAASGFTFSSYAMSWVRQAPGKGLEWVASISSGDTTYYPDSVKGRFTISRDNAKNSLYLQMNSLRAEDTAVYYCARNEGYYFGLTLWGQGTLVTVSSASTKGPSVFPLAPSSKSTSGGTAALGCLVKDYFPEPVTVSWNSGALTSGVHTFPAVLQSSGLYSLSSVVTVPSSSLGTQTYICNVNHKPSNTKVDKKVEPKSC
B11: IL13433-1261 (other)
heavy: B10 heavy with R225D, R232P
chain 1: B10 chain 1 with E448D, E455P
light 1: B10 light 1
light 2: B10 light 2 with E97K
chain 2: B10 chain 2
B12: IL13433-1270 (other)
heavy: B10 heavy with L132K, V189S, R225D, R232P, Y353C, T370W, R413K
chain 1: B10 chain 1 with L355E, S410G, E448D, E455P, S581C, T593S, E595A, Y634V
light 1: B10 light 1 with V132S, S175D
light 2: B10 light 2 with E97K, V137S, S180K
chain 2: B10 chain 2
B13: IL13433-1275 (other)
heavy: B10 heavy with R225D, R232P, T370W, R413K
chain 1: B10 chain 1 with E448D, E455P, T593S, E595A, Y634V
light 1: B10 light 1
light 2: B10 light 2 with E97K
chain 2: B10 chain 2
B14: IL13-1283 (antibody, human IgG1, kappa, V domains shown)
VH: B9 VH 1 with S30I, D55G, T56N, N98L, E99D, L105F, T106A, L107Y
VL: DIQMTQSPSSLSASVGDRVTITCKASESVDNYGKSLMHWYQQKPGKAPKLLIYRASNLESGVPSRFSGSGSGTDFTLTISSLQPEDFATYYCQQSNEDPWTFGGGTKVEIKR

Biological target: T1, human IL-33 mm2 Cys (human, UniProt O95760 112-270, limits assumed)
T1 sequence (looked up): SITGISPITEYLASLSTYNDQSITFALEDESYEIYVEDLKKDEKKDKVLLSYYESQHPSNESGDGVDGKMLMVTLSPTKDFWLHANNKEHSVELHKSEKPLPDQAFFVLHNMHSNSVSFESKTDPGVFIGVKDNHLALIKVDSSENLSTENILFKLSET
Assay: cell-based or functional assay

Binder | IC50 [pM] versus human IL-33 mm2 Cys (HEK-Blue SEAP)
B1 | 158 pM
B2 | 142 pM
B3 | 176 pM
B4 | 115 pM

Biological target: recombinant human TSLP (glycosylated long form) (human, UniProt Q969D9 29-159)
Assay: cell-based or functional assay

Binder | a-TSLP TARC bioassay (fold change to TSLP-0001)
B5 | 2.5 fold
B6 | 7.2 fold
B7 | 6.4 fold
B8 | 5.1 fold

Biological target: recombinant human IL-13 (human, UniProt P35225 35-146)
Assay: cell-based or functional assay

recombinant human IL-13, sequence (P35225 35-146 limits assumed): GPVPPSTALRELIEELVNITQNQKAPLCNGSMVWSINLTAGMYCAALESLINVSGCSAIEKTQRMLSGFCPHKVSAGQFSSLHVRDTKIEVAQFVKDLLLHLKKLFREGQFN

Binder | IL-13 Induced CD23 Expression, potency of cytokine neutralization
B9 | 0.00913 nM
B10 | 0.0124 nM
B11 | 0.00897 nM
B12 | 0.00758 nM
B13 | 0.00888 nM

Biological target: T2, recombinant human IL-4 (human, UniProt P05112 25-153)
T2 sequence (looked up): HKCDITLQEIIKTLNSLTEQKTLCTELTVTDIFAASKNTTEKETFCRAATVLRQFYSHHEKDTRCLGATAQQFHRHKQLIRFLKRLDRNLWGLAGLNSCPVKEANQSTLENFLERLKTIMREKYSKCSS
Assay: cell-based or functional assay

Binder | IL-4 Induced CD23 Expression, potency of cytokine neutralization
B9 | 0.0137 nM
B10 | 0.0071 nM
B11 | 0.0139 nM
B12 | 0.0165 nM
B13 | 0.0149 nM

Biological target: T3, recombinant human IL-33 (human, UniProt O95760 112-270, limits assumed)
T3 sequence (looked up): T1 sequence (looked up) with S97C, S116C, S121C, S148C
Assay: cell-based or functional assay

Binder | IL-33 WT Activation of SEAP Reporter Cells, potency of cytokine neutralization
B9 | 0.013 nM
B10 | 0.028 nM
B11 | 0.021 nM
B12 | 0.012 nM
B13 | 0.013 nM

Biological target: human IL-13 (human, UniProt P35225 35-146)
Assay: cell-based or functional assay

human IL-13, sequence (P35225 35-146 limits assumed, form in doubt): as the sequence (P35225 35-146 limits assumed) above

Binder | CD23 IC50 [pM] | pSTAT6 IC50 [pM]
B14 | 261 pM | 427 pM
